Measurements: patent US20030219718, “Inhibitors of the S100-p53 protein-protein interaction and method of inhibiting cancer employing the same” (UNIVERSITY OF MARYLAND, BALTIMORE, published 2003)

Molecular target: p53 (UniProt P04637 P04637:1-393)
Experiment: EMSA; supershifted by p53 antibody; five times more protein and DNA needed than for GADD45; salmon sperm DNA 1.0 µg
Settings: tags: baculovirus expressed, Protein Sciences Inc; chain copies: 4; label: T4 polynucleotide kinase end label
Description: Accordingly, mobility shift assays were performed with purified p53 to determine if these sequences in the promoter of S100B were bona fide p53 binding sites, using the GADD45 sequence as a positive control. […] The baculovirus expressed p53 was obtained from Protein Sciences Inc. (Baltimore, Md.). Baculovirus expressed p53 was used (0.6 and 3.0 μg) for binding to the GADD45 and the S100B oligonucleotides respectively.

p53, sequence (P04637 whole entry, one chain of several): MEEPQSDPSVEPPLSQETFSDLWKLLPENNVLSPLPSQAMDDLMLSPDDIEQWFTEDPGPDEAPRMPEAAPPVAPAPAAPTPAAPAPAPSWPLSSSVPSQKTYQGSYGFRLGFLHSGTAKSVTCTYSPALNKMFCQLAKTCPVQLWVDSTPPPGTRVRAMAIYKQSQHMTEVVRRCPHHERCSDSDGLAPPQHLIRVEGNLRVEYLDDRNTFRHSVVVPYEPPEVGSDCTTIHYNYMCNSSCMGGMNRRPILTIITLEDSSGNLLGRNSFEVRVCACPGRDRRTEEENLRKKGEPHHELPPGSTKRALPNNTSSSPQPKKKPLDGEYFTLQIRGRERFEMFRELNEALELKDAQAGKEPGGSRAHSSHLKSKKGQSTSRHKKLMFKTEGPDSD

B1: S100B promoter p53 site (20/20 match, nt 1705-1735) (dsDNA)
DNA 1: GCCTGGGCAAGCTCTGTGCTTCACAGAGCAAGCCTGTGT
DNA 2: ACACAGGCTTGCTCTGTGAAGCACAGAGCTTGCCCAGGC
binding result: binds
